Experimental data from PMC6009650.

What was measured:
[1] = biological target: E. coli RNAP core enzyme carrying a hexahistidine-tagged β’ subunit (E. coli) (UniProt P0A8T7)
[2] = biological target: E. coli RNAP core enzyme carrying a hexahistidine-tagged β’ subunit (E. coli) (UniProt P0A8T7); remark: listed apart in the source

UniProt P0A8T7, sequence (P0A8T7 whole entry, looked up): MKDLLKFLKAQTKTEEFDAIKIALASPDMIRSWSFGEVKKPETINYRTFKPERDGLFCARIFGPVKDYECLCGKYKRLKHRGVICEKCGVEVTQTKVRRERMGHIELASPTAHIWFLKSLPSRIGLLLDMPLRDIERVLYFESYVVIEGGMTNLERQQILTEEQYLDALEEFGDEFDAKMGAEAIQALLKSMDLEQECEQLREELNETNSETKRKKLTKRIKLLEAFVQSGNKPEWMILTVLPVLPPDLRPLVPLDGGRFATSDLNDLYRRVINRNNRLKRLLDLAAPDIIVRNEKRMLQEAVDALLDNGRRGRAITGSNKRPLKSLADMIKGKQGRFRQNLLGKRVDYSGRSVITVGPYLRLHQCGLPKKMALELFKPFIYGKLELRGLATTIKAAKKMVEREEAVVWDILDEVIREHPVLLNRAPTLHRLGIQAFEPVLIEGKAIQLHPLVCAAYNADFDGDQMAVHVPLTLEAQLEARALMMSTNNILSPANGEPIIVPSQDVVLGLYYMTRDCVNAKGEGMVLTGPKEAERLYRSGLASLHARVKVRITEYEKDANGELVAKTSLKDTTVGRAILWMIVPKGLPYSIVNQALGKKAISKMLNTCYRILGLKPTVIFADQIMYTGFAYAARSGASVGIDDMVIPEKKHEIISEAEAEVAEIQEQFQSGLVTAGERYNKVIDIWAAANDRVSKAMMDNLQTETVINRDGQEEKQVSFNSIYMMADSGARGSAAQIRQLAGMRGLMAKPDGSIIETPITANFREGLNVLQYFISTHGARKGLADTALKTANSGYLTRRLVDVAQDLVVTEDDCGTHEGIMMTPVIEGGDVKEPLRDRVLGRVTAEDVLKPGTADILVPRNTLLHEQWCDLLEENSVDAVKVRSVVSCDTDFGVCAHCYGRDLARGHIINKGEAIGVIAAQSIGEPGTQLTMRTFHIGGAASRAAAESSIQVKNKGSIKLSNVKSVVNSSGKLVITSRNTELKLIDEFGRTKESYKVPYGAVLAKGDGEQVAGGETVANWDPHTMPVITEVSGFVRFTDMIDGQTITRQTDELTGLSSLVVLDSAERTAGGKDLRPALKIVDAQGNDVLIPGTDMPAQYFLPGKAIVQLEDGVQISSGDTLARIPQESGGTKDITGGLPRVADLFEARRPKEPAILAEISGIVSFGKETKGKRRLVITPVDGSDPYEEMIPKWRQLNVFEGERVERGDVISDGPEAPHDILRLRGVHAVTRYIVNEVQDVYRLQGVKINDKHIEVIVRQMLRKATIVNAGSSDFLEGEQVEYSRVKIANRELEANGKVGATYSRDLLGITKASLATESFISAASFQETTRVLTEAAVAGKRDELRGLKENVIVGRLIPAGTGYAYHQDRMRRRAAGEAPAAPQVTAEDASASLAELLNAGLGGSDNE

B1: Nun protein of HK022 phage (natural protein)
chain: VKKTIYVNPDSGQNRKVSDRGLTSRDRRRIARWEKRIAYALKNGVTPGFNAIDDGPEYKINEDPMDKVDKALATPFPRDVEKIEDEKYEDVMHRVVNHAHQRNPNKKWS
apparent pyrophosphorolysis rate of TEC U10 after pre-incubation with 1 μM Nun (0.21 s^-1 without Nun); 2.5 mM PPi, 5 mM MgCl2 [1]: 2.4 s⁻¹
apparent Vmax of pyrophosphorolysis of TEC U10 with 1 μM Nun (15.7 min^-1 without Nun); [PPi] 10 μM to 2.5 mM [2]: 160 min⁻¹
